According to patent US20030171295A1:

Target: human melanocortin 1 receptor (hMC1-r transfected COS-7 cells) (human) (UniProt Q01726)
Assay: Scatchard analysis on MC1-r transfected COS7 cells, culture supernatant with up to 30 nM AP-Ag

Kd: 20 to 30 nM
Substance: AP-Ag, truncated agouti protein containing the cysteine-rich domain tagged with alkaline phosphatase at its N-terminal (from UniProt Q03288) (ligand)
